# B1: TCB2-Fab (Fab, V domains shown)
# VH: EVQLQQSGAELARPGASVKLSCKASGYTFTTYWIQWVKQRPGQGLEWIGAIYPGDGDTRYIQNFKGKATLTADKSSSTAYMQLSSLASEDSAVYYCARSLATRGFYAMDYWGQGTSVTVSS
# VL: DIVMTQSPASLSMAIGEKVTIRCITSTDIDDDMNWYQQKPGEPPKLLISEGNTLRPGVPSRFSSSGYGTDFVFTIENMLSEDVADYYCLQSDNLPYTFGGGTKLEIK
# Target: human interleukin-2 (human, UniProt P60568)
# Test: SEC
# human interleukin-2, sequence (P60568 21-153): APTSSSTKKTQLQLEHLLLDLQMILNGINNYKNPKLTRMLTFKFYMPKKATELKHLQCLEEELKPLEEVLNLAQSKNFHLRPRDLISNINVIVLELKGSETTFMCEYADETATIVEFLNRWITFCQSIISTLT
binder,measurement,value
B1,binding result,binds
